Data taken from patent publication US20220073643A1.

Target: Claudin18.2-His protein (human)
Assay: indirect ELISA on coated Claudin18.2-His

B1: 407H12E6 (antibody, V domains shown)
VH: DVQLVESGGGLVQPGGSRKLSCAASGFTVSSFGMHWVRQAPEKGLEWVAYISSGSSPIYYADTVKGRFTISRDNPKNTLFLQMTSLRSEDTAIYFCARFYYGNSFDHWGQGTLVTVSA
VL: DIVMTQSPSSLTVTTGEKVTMSCKSSQSLLNSGNQKNYLTWYQQKPGQSPKLLIYWASTRESGVPDRFTGSGSGTDFTLTISSVQTEDLAVYFCQNNYFFPLTFGAGTKLELK
**Q.** With B1 as the binder, how does the EC50 read?
**A.** 0.126 µg/mL
